From publication PMC5694352

What was measured:
Experiment in all cases: BLI
[1] = biological target: Man5-IgG3 Fc (human IgG3 Fc with the GlcNAc2Man5 glycoform) (human)
[2] = biological target: GlcNAc-IgG3 Fc (human IgG3 Fc with a single GlcNAc at N297) (human)
[3] = biological target: High mannose (Man8-Man12) glycoform of human IgG3 Fc (human)

Fcγ receptor IIIA, high affinity polymorph (V158)
Kd [1]: 46.5 nM | Kd [2]: 506 nM | koff [2]: 0.0858 s⁻¹ | kon [2]: 170000 M⁻¹ s⁻¹ | Kd [3]: 41.4 nM | koff [3]: 0.0065 s⁻¹ | kon [3]: 160000 M⁻¹ s⁻¹
